Experimental data as given in US7026443.

These binders were tested against HLA-A*0301 (human) (assay: not given). Conditions: not given.

Binder | relative binding ratio (IC50 of standard peptide / IC50 of test peptide) (ratio to standard peptide) | binding affinity ratio (IC50 of standard peptide / IC50 of test peptide) (ratio relative to standard peptide) | binding affinity ratio (IC50 of standard peptide / IC50 of test peptide) | relative binding ratio (IC50 of standard peptide / IC50 of test peptide)
CIDFYSRIR (modifications not checked) [HPV45 E6 peptide … (position 68, 9 amino acids)] | 0.0001 |  |  | 
LIRCLRCQK (modifications not checked) [HPV45 E6 peptide … (position 102, 9 amino acids)] | 0.019 |  |  | 
NSNAAAFLK (modifications not checked) [HPV33 E1 379 peptide … (SEQ ID NO: 10558)] |  | 0.0057 |  | 
SVAALYWYR (modifications not checked) [HPV18 E1 position 322 peptide …] |  |  | 2.9 | 
ATMCRHYKR (modifications not checked) [HPV16 E1 peptide … (position 406, 9 amino acids)] |  |  | 0.066 | 
NMSQWIRFR (modifications not checked) [HPV18 E1 position 428 peptide …] |  |  | 0.054 | 
SVAALYWYR (modifications not checked) [HPV45 E1 peptide … (position 308, 9 amino acids)] |  |  |  | 2.9
MLIQPPKLR (modifications not checked) [HPV18 E1 position 312 peptide …] |  |  | 0.0005 | 
NSNAAAFLK (modifications not checked) [HPV18 E1 position 393 peptide …] |  |  | 0.0057 | 
LLVRYKCGK (modifications not checked) [HPV16 E1 peptide … (position 277, 9 amino acids)] |  |  | 0.0043 | 
ALLRYKCGK (modifications not checked) [HPV45 E1 peptide … (position 270, 9 amino acids)] |  |  |  | 0.09
QMNMSQWIR (modifications not checked) [HPV18 E1 position 426 peptide …] |  |  | 0.0011 | 
GVSFSELVR (modifications not checked) [HPV16 E1 peptide … (position 216, 9 amino acids)] |  |  | 0.0011 | 
FMSFLTALK (modifications not checked) [HPV16 E1 peptide … (position 453, 9 amino acids)] |  |  | 0.13 | 
FLKSNSQAK (modifications not checked) [HPV31 E1 peptide … (position 372, 9 amino acids)] | 0.0013 |  |  | 
ALFTAQEAK (modifications not checked) [HPV16 E1 peptide … (position 69, 9 amino acids)] |  |  | 0.24 | 
FLKSNSQAK (modifications not checked) [HPV33 E1 385 peptide … (A03 supermotif peptide, 9 amino acids)] |  |  |  | 0.0013
LLIRCLRCQK (modifications not checked) [HPV45 E6 peptide … (position 101, 10 amino acids)] | 0.047 |  |  | 
LVRNFKSDK (modifications not checked) [HPV18 E1 position 229 peptide …] |  |  | 0.0005 | 

The binders below were run against HLA-A*1101 (human) (assay: not given). Conditions: not given.

Binder | relative binding ratio (IC50 of standard peptide / IC50 of test peptide) (ratio to standard peptide) | binding affinity ratio (IC50 of standard peptide / IC50 of test peptide) (ratio relative to standard peptide) | binding affinity ratio (IC50 of standard peptide / IC50 of test peptide) | relative binding ratio (IC50 of standard peptide / IC50 of test peptide)
CIDFYSRIR (modifications not checked) [HPV45 E6 peptide … (position 68, 9 amino acids)] | 0.0001 |  |  | 
LIRCLRCQK (modifications not checked) [HPV45 E6 peptide … (position 102, 9 amino acids)] | 0.0012 |  |  | 
NSNAAAFLK (modifications not checked) [HPV33 E1 379 peptide … (SEQ ID NO: 10558)] |  | 0.37 |  | 
SVAALYWYR (modifications not checked) [HPV18 E1 position 322 peptide …] |  |  | 8.8 | 
ATMCRHYKR (modifications not checked) [HPV16 E1 peptide … (position 406, 9 amino acids)] |  |  | 1.5 | 
NMSQWIRFR (modifications not checked) [HPV18 E1 position 428 peptide …] |  |  | 0.0012 | 
SVAALYWYR (modifications not checked) [HPV45 E1 peptide … (position 308, 9 amino acids)] |  |  |  | 8.8
MLIQPPKLR (modifications not checked) [HPV18 E1 position 312 peptide …] |  |  | 0.0014 | 
NSNAAAFLK (modifications not checked) [HPV18 E1 position 393 peptide …] |  |  | 0.37 | 
LLVRYKCGK (modifications not checked) [HPV16 E1 peptide … (position 277, 9 amino acids)] |  |  | 0.0033 | 
ALLRYKCGK (modifications not checked) [HPV45 E1 peptide … (position 270, 9 amino acids)] |  |  |  | 0.14
QMNMSQWIR (modifications not checked) [HPV18 E1 position 426 peptide …] |  |  | 0.0023 | 
GVSFSELVR (modifications not checked) [HPV16 E1 peptide … (position 216, 9 amino acids)] |  |  | 0.018 | 
FMSFLTALK (modifications not checked) [HPV16 E1 peptide … (position 453, 9 amino acids)] |  |  | 0.21 | 
ALFTAQEAK (modifications not checked) [HPV16 E1 peptide … (position 69, 9 amino acids)] |  |  | 0.4 | 
LLIRCLRCQK (modifications not checked) [HPV45 E6 peptide … (position 101, 10 amino acids)] | 0.12 |  |  | 
LVRNFKSDK (modifications not checked) [HPV18 E1 position 229 peptide …] |  |  | 0.0002 | 

The binders below were run against HLA-A*2402 (human) (assay: not given). Conditions: not given.

Binder | relative binding ratio (IC50 of standard peptide / IC50 of test peptide) (ratio to standard peptide) | relative binding ratio (IC50 of standard peptide / IC50 of test peptide) | binding affinity ratio (IC50 of standard peptide / IC50 of test peptide)
FYSRIREL (modifications not checked) [HPV18 E6 71-78 peptide FYSRIREL] | 0.026 |  | 
LYNLLIRCL (modifications not checked) [HPV45 E6 98 peptide … (SEQ ID NO: 15730)] |  | 0.0001 | 
LYNLLIRCL (modifications not checked) [HPV18 E6 98-106 peptide …] | 0.0001 |  | 
PYAVCDKCL (modifications not checked) [HPV16 E6 66 …] |  | 0.0078 | 
VYRDGNPY (modifications not checked) [HPV16 E6 60 VYRDGNPY] |  | 0.0001 | 
PYKLPDLCTEL (modifications not checked) [HPV45 E6 11 peptide … (SEQ ID NO: 15737)] |  | 0.0064 | 
FYSRIREL (modifications not checked) [HPV45 E6 71 peptide FYSRIREL (SEQ ID NO: 15714)] |  | 0.026 | 
VYCKQQLL (modifications not checked) [HPV16 E6 38 VYCKQQLL] |  | 0.0069 | 
DFAFRDLCI (modifications not checked) [HPV16 E6 51 …] |  |  | 0.0003
FYSRIRELRHY (modifications not checked) [HPV18 E6 71-81 peptide …] | 0.0052 |  | 
CYSLYGTTL (modifications not checked) [HPV16 E6 87 …] |  |  | 0.046

Same assay, conditions: remark: other sources report otherwise

Binder | relative binding ratio (IC50 of standard peptide / IC50 of test peptide) (ratio to standard peptide) | relative binding ratio (IC50 of standard peptide / IC50 of test peptide)
KLPDLCTEL (modifications not checked) [HPV18 E6 13-21 peptide …] | 0.0013 | 
KLPDLCTEL (modifications not checked) [HPV45 E6 13 peptide … (SEQ ID NO: 15726)] |  | 0.0013
RFHNIRGRW (modifications not checked) [HPV16 E6 131 …] |  | 0.022

Molecular target: HLA-A*0301 (human)
Assay: not given
Conditions: not given
Remark: another data set of the same source

Binder | binding affinity ratio (IC50 of standard peptide / IC50 of test peptide) | relative binding ratio (IC50 of standard peptide / IC50 of test peptide) (ratio to standard peptide) | binding affinity ratio (IC50 of the standard peptide / IC50 of the test peptide) | binding affinity ratio relative to the standard peptide (IC50 standard / IC50 test)
CIDFYSRIR (modifications not checked) [HPV45 E6 peptide … (position 68, 9 amino acids)] | 0.001 |  |  | 
LIRCLRCQK (modifications not checked) [HPV45 E6 peptide … (position 102, 9 amino acids)] | 0.019 |  |  | 
ATMCRHYKR (modifications not checked) [HPV16 E1 peptide … (position 406, 9 amino acids)] |  | 0.066 |  | 
QMSMSQWIK (modifications not checked) [HPV16 E1 peptide … (position 419, 9 amino acids)] |  |  | 0.0023 | 
FMSFLTALK (modifications not checked) [HPV16 E1 peptide … (position 453, 9 amino acids)] |  |  |  | 0.13
ALFTAQEAK (modifications not checked) [HPV16 E1 peptide … (position 69, 9 amino acids)] |  | 0.24 |  | 
LLIRCLRCQK (modifications not checked) [HPV45 E6 peptide … (position 101, 10 amino acids)] | 0.047 |  |  | 

Molecular target: HLA-A*1101 (human)
Assay: not given
Conditions: not given
Remark: another data set of the same source

Binder | relative binding ratio (IC50 of standard peptide / IC50 of test peptide) (ratio to standard peptide) | relative binding ratio (IC50 of standard peptide / IC50 of test peptide) | binding affinity ratio (IC50 of standard peptide / IC50 of test peptide)
CIDFYSRIR (modifications not checked) [HPV45 E6 peptide … (position 68, 9 amino acids)] | 0.0001 |  | 
LIRCLRCQK (modifications not checked) [HPV45 E6 peptide … (position 102, 9 amino acids)] | 0.0012 |  | 
ALLRYKCGK (modifications not checked) [HPV45 E1 peptide … (position 270, 9 amino acids)] |  | 0.14 | 
IAQLKDLLK (modifications not checked) [HPV18 E1 position 198 peptide …] |  |  | 0.0027
LLIRCLRCQK (modifications not checked) [HPV45 E6 peptide … (position 101, 10 amino acids)] | 0.12 |  | 
GLSFTDLVR (modifications not checked) [HPV18 E1 position 223 peptide …] |  |  | 0.0025

Molecular target: HLA-A*2402 (human)
Assay: not given
Conditions: not given
Remark: another data set of the same source

Binder | relative binding ratio (IC50 of standard peptide / IC50 of test peptide) | binding affinity ratio (IC50 of standard peptide / IC50 of test peptide) | relative binding ratio (IC50 of standard peptide / IC50 of test peptide) (ratio to standard peptide)
VYCKTVLEL (modifications not checked) [… (HPV18 E6, position 33, 9 amino acids)] | 0.022 |  | 
FYSRIREL (modifications not checked) [FYSRIREL (HPV18 E6, position 71, 8 amino acids)] | 0.026 |  | 
PYKLPDLCTEL (modifications not checked) [… (HPV18 E6, position 11, 11 amino acids)] | 0.0064 |  | 
FYSRIREL (modifications not checked) [HPV45 E6 position 71 peptide FYSRIREL (SEQ ID NO: 46116)] |  | 0.026 | 
LYNLLIRCL (modifications not checked) [… (HPV18 E6, position 98, 9 amino acids)] | 0.0001 |  | 
PYAVCDKCL (modifications not checked) [HPV16 E6 66 …] |  |  | 0.0078
LYNLLIRCL (modifications not checked) [HPV45 E6 position 98 peptide … (SEQ ID NO: 46118)] |  | 0.0001 | 
VFEFAFKDLF (modifications not checked) [… (HPV18 E6, position 44, 10 amino acids)] | 0.036 |  | 
VYCKQQLL (modifications not checked) [HPV16 E6 38 VYCKQQLL] |  |  | 0.0069
DFAFRDLCI (modifications not checked) [HPV16 E6 51 …] |  |  | 0.0003
CYSLYGTTL (modifications not checked) [HPV16 E6 87 …] |  |  | 0.046
PYKLPDLCTEL (modifications not checked) [HPV45 E6 position 11 peptide … (SEQ ID NO: 46119)] |  | 0.0064 | 

Same assay, conditions: remark: other sources report otherwise

Binder | relative binding ratio (IC50 of standard peptide / IC50 of test peptide) (ratio to standard peptide)
RFHNIRGRW (modifications not checked) [HPV16 E6 131 …] | 0.022

These binders were tested against HLA-A*0301 (human) (assay: competition with 125I-labeled standard peptide for purified HLA, gel filtration). Conditions: not given.

Binder | binding affinity ratio (IC50 of standard peptide / IC50 of test peptide) | relative binding ratio (IC50 of standard peptide / IC50 of test peptide)
ISLNSGQKK (modifications not checked) [HPV18 E1 position 116 peptide …] | 0.0003 | 
GVLILALLR (modifications not checked) [HPV18 E1 position 279 peptide …] | 0.0058 | 
QMSMSQWIK (modifications not checked) [HPV16 E1 peptide … (position 419, 9 amino acids)] |  | 0.0023
IAQLKDLLK (modifications not checked) [HPV18 E1 position 198 peptide …] | 0.0003 | 
GLSFTDLVR (modifications not checked) [HPV18 E1 position 223 peptide …] | 0.0009 | 

The binders below were run against HLA-A*1101 (human) in the same assay as above. Conditions: not given.

Binder | binding affinity ratio (IC50 of standard peptide / IC50 of test peptide) | relative binding ratio (IC50 of standard peptide / IC50 of test peptide)
ISLNSGQKK (modifications not checked) [HPV18 E1 position 116 peptide …] | 0.0026 | 
GVLILALLR (modifications not checked) [HPV18 E1 position 279 peptide …] | 0.14 | 
QMSMSQWIK (modifications not checked) [HPV16 E1 peptide … (position 419, 9 amino acids)] |  | 0.026
IAQLKDLLK (modifications not checked) [HPV18 E1 position 198 peptide …] | 0.0027 | 
GLSFTDLVR (modifications not checked) [HPV18 E1 position 223 peptide …] | 0.0025 | 

Each binder was assayed against HLA-A*1101 (human) (assay: competition with 125I-labelled standard peptide for purified HLA-A*1101, gel filtration). Conditions: not given.

Binder | binding affinity ratio (IC50 of standard peptide / IC50 of test peptide)
ISLNSGQKK (modifications not checked) [HPV18 E1 position 116 peptide …] | 0.0026
GVLILALLR (modifications not checked) [HPV18 E1 position 279 peptide …] | 0.14
